For 1 substance, relative phosphorylation (PhosphorImager) (relative phosphorylation) results are on record in patent publication US20030129606A1.

Test [1] has as its target GST-IκB (Schistosoma japonicum (Blood fluke)) [GST: P08515].
Test [2] has as its target GST-EGF-R (residues 647-688) (Homo sapiens (Human)) (UniProt P00533).
Test [3] addresses GST-ATF2 (substrate of kinase assays, residues not stated) (Homo sapiens (Human)) (UniProt P15336).

Regarding “GST-p38 MAP kinase (from UniProt Q16539) (enzyme)”, the relative phosphorylation (PhosphorImager) (relative phosphorylation) in test [1] amounted to 0.001; with MBP, 0.23; in test [2] it was 0.04; in test [3] it was 1.
